{"source": "patent US20160235810A1", "about": "“METHODS OF TREATING DIABETES AND RELATED DISORDERS” (NOVARTIS AG, priority 2013, published 2016)", "key": {"[1]": {"tested_on": "high fat diet-induced obese (DIO) mice", "experiment": "OGTT after hydrodynamic injection (HDI) of vector encoding PIP/Sval1 in high fat DIO mice", "assay_type": "in vivo", "source_text": "To ascertain if this newly implicated factor can replicate some of the benefits shown by the RYGB surgery, a hydrodynamic gene delivery method was developed in-house. We tested the effect of delivery of DNA encoding the secreted factor PIP in vivo. The Fc-fusion proteins of PIP was encoded in pLEV113 vector, which was delivered via hydrodynamic injection (HDI) in high fat diet-induced obese (DIO) mice.\nMice, that were maintained for 12 weeks on high fat diet (60% Kcal fat, Research Diets), were sorted into groups based on their body weights and fed blood glucose levels. On the day of HDI of the PIP vector or control pLEV113 vector (30 ug/mouse), mice were placed in a restrainer and tails were cleaned with 70% alcohol. A 27-G butterfly needle connected with a 3 ml syringe was inserted into the tail vain, with bevel facing up, and pulled backwards on the syringe plunger to ensure blood was drawn into the syringe. The desired volumes (7% of body weight, up to a total of 3.2 mL) of DNA construct solution was injected over a short period (5-10 seconds) by hand. The needle was then withdrawn and bleeding stopped by adding pressure to the injection site with gauze.\nAfter the HDI procedure, mice were monitored twice daily in the first 48 hours and then once per day for a week. Basal fed blood glucose levels in mice were measured at day 14, and blood samples were collected to obtain plasma for measuring Fc level or for endogenous protein levels in the future.\nAt day 16 post-HDI an OGTT was conducted to evaluate glucose handling and beta cell function. Basal and glucose-stimulated glucose and insulin levels were measured over 2-3 hours during the OGTT.\nAt day 30, basal blood glucose levels, changes in weight or food intake, and another functional tests, such as an OGTT, were performed for a 2nd time.\nAt day 40 post-HDI, the study was terminated by euthanization of mice and plasma collected for key metabolic biomarkers."}, "[2]": {"tested_on": "diabetic non-human primates", "conditions": "Kharitonenkov et al. 2007; cited from earlier work"}}, "data": [{"molecule": "human PIP: human prolactin-inducible protein (GenBank NP_002643), here delivered via HDI of vector (protein, UniProt P12273 29-146, looked up) Prolactin-inducible protein: QDNTRKIIIKNFDIPKSVRPNDEVTAVLAVQTELKECMVVKTYLISSIPLQGAFNYKYTACLCDDNPKTFYWDFYTNRTVQIAAVVDVIRELGICPDDAAVIPIKNNRFYTIEILKVE", "values": [{"measurement": "beta cell function compared to mouse Sval1", "setting": "[1]; HDI administration in DIO mice", "result": "improved beta cell function similar to that of mouse Sval1"}]}, {"molecule": "mouse PIP: mouse prolactin-inducible protein, delivered as DNA in pLEV113 vector via hydrodynamic injection (full length native and Fc-tagged tested) (protein, UniProt P02816 27-146, looked up) Prolactin-inducible protein …: QDDENVRKPLLIEIDVPSTAQENQEITVQVTVETQYRECMVIKAYLVSNEPMEGAFNYVQTRCLCNDHPIRFFWDIIITRTVTFATVIDIVREKNICPNDMAVVPITANRYYTYNTVRMN", "values": [{"measurement": "reduction in glucose area under the curve during an OGTT", "setting": "[1]; hydrodynamic gene delivery, high fat DIO mice, glucose AUC 0-120 min, compared to vector control group", "result": 30, "unit": "%"}, {"measurement": "increase in insulin area under the curve (GSIS) during an OGTT", "setting": "[1]; hydrodynamic gene delivery, high fat DIO mice, insulin AUC 0-30 min, compared to vector control group", "result": 72, "unit": "%"}]}, {"molecule": "FGF-21: Fibroblast Growth factor 21, an endocrine hormone; proposed fusion partner (protein) HPIPDSSPLLQFGGQVRQRYLYTDDAQQTEAHLEIREDGTVGGAADQSPESLLQLKALKPGVIQILGVKTSRFLCQRPDGALYGSLHFDPEACSFRELLLEDGYNVYQSEAHGLPLHLPGNKSPHRDPAPRGPARFLPLPGLPPALPEPPGILAPQPPDVGSSDPLSMVGPSQGRSPSYAS", "values": [{"measurement": "increase in HDL cholesterol", "setting": "[2]", "result": "~80", "unit": "%"}]}]}
